Reference: US20120041185A1, “dTDP-BETA-D-FUCOFURANOSE, ITS PREPARATION METHOD AND USE” (TIANJIN BIOCHIP TECHNOLOGY CORPORATION, priority 2007, published 2012)

Tests used:
[1] = Enzyme activity assay of Fcf2: temperature optima (capillary electrophoresis); type: biochemical, E. coli O52; conditions: for Transformation rate (%): 3 hours, 2 mM dTDP-D-fucose, 3.9 μM enzyme
Experimental: 25 μl reactions in 0.5 ml centrifugal tube contain 2 mM dTDP-D-fucose, 50 mM Tris-HCl buffer (pH 7.4) 5 mM divalent ion chloride and 3.9 μM recombinant dTDP-D-Glcfucofuranose mutase protein purified in example 2. The reactions are proceeded at certain temperature for 3 hours. Then add chloroform of equal volume to extract protein. The aqueous phase is detected by Beckman Coulter P/ACE MDQ capillary electrophoresis.

[2] = Enzyme activity assay of Fcf1: temperature optima and kinetic parameters (capillary electrophoresis); type: biochemical, E. coli O52; conditions: for Transformation rate (%): 2 hours, 2 mM dTDP-D-Glco, 3 mM NADPH, 0.25 μM enzyme
Experimental: 20 μl reactions in 0.5 ml centrifugal tube contain 2 mM dTDP-D-Glco, 3 mM NADPH, 50 mM Tris-HCl buffer (pH7.4), 5 mM divalent ion chloride and 0.25 μM recombinant dTDP-D-GIcO reductase protein purified in example 2. The reactions are proceeded at certain temperatures for 2 hours. Then add chloroform of equal volume to extract protein. The aqueous phase is detected by Beckman Coulter P/ACE MDQ capillary electrophoresis.
In the condition of the foregoing reaction (37° C., 3 mM MADPH, 50 mM Tris-HCl buffer (pH 7.4), 0.25 μM enzyme, 30 seconds), the concentration of dTDP-GIcO is 0.1-1 mM. Measure the concentration of dTDP-Qui4N.

[3] = 37° C., pH 7.4, 0.25 μM enzyme, 30 seconds, dTDP-GIcO 0.1-1 mM, Michaelis-Menten equation

Molecule | Transformation rate (%) ([1]; 4° C.) | Transformation rate (%) ([1]; 15° C.) | Transformation rate (%) ([1]; 25° C.) | Transformation rate (%) ([1]; 37° C.) | Transformation rate (%) ([1]; 50° C.) | Transformation rate (%) ([1]; 65° C.) | Transformation rate (%) ([1]; 80° C.) | optimum temperature for the enzyme activity ([1]; standard reactions at 4-80° C.) [°C] | Transformation rate (%) ([2]; 4° C.) | Transformation rate (%) ([2]; 15° C.) | Transformation rate (%) ([2]; 25° C.) | Transformation rate (%) ([2]; 37° C.) | Km [2, 3] [µM] | kcat [2, 3] [s⁻¹] | Transformation rate (%) ([2]; 50° C.) | Transformation rate (%) ([2]; 65° C.) | Transformation rate (%) ([2]; 80° C.) | optimum temperature for the enzyme activity ([2]; standard reactions at 4-80° C.)
Fcf2: dTDP-D-Fucp mutase of E. coli O52 converting dTDP-D-Fucp to dTDP-D-Fucf, 377 amino acids, SEQ ID NO:4 (protein, E. coli O52) MNKVLIIGSGFSGATIARLLAEENIKVKIIDDRKHIGGNCYDERDEKTGINVHVYGPHIFHTDNEDVWNFVNKYGTFQPYTTRLKANAKGQIYSLPVNLHTINQYYKTALSPTEARKLIASKGDQTINDPQSFEEQALKFVGEDLYKTFFYGYPKKQWGMEPKEIPASVLKRLPVRFNYDDNYFFHKFQGIPRDGYTPLFQNLLNHPNIEFELGKKVNRATVEELITSEQYGHVFFSGAIDHFYDYEFGMLQYRTLDFEKFYSEDDDYQGCVVMSYCDEDVPYTRVTEHKYFTPWEEHKGSVLYKEFSRSCDKEDIPYYPVRLVSGNSIWNKYEQKAKEETNITFIGRLATYRYLDMDVCIKEAIECAQLYIKNNKE | 1.6 | 9.5 | 9.6 | 9.6 | 4.7 | 0 | 0 | 37 | – | – | – | – | – | – | – | – | – | –
Fcf1: dTDP-6-deoxy-D-xylo-hex-4-ulopyranose reductase of E. coli O52, 316 amino acids, SEQ ID NO:3 (protein, E. coli O52) MDARKNGVLITGGAGFIGKALITEMVERQIPLVSFDISDKPDSLPELSEYFNWYKFSYLESSQRIKELHEIVSRHNIKTVIHLATTMFPHESKKNIDKDCLENVYANVCFFKNLYENGCEKIIFASSGGTVYGKSDTPFSEDDALLPEISYGLSKVMTETYLRFIAKELNGKSISLRISNPYGEGQRIDGKQGVIPIFLNKISNDIPIDIIGSIESKRDYIYISDLVQAFMCSLEYEGHEDIFNIGSGESITLKKLIETIEFKLNKKAVIGFQDPIHTNANGIILDIKRAMAELGWRPTVVLDDGIDKLIKSIRCK | – | – | – | – | – | – | – | – | 47.0 | 100 | 100 | 100 | 540 | 15.9 | 35.5 | 31 | 22 | 15-37 °C
